According to paper PMC5805389 (Biochemistry, 2016):
Where a chain is given by its changes, count along the chain named. Numbers in names are those of the source.

Target: the molecule itself
Assay: crystal structure

B1: human DJ-1, wild type (natural protein)
chain: GSHMASKRALVILAKGAEEMETVIPVDVMRRAGIKVTVAGLAGKDPVQCSRDVVICPDASLEDAKKEGPYDVVVLPGGNLGAQNLSESAAVKEILKEQENRKGLIAAICAGPTALLAHEIGFGSKVTTHPLAKDKMMNGGHYTYSENRVEKDGLILTSRGPGTSFEFALAIVEALNGKEVAAQVKAPLVLKD
  stoichiometry N: 2

B2: human DJ-1 D24N (natural protein)
chain: B1 chain with D27N
  binding result: binds
